Source: patent US5382658A, “Stability-enhanced variants of parathyroid hormone” (Allelix Biopharmaceuticals Inc., priority 1992, dated 1995)
Where two headings read alike, the source gives them in different places.

Tests used:
[1] = system: adenylate cyclase activity in UMR-106 rat osteosarcoma cells; test: UMR-106 based adenylate cyclase assay (cAMP formation); format: cell-based; settings: for EC50: UMR-106 cells, untreated samples, read-out: EC50, concentration effective for half-maximal stimulation of adenylate cyclase activity; for potency relative to hPTH (in words): UMR-106 adenylate cyclase assay
Source text: In the present specification, PTH activity is defined in the context of the osteosarcoma-based adenylate cyclase assay employed conventionally in the art. Briefly, this assay provides an in vitro determination of the extent to which PTH stimulates adenylate cyclase activity in rat osteosarcoma cells of the `UMR` lineage, and thus provides an indication of PTH effects on bone tissue in vivo. Protocols for conducting the assay have been described by Rodan et al, 1983, J. Clin. Invest., 72:1511 (in which the osteosaracoma cells of the ROS lineage are employed) and by Rabbani et al, 1988, Endocrinol., 123:2709 (which employs the line UMR-106). […] The term EC50 refers to the concentration of PTH or variant effective for half-maximal stimulation of adenylate cyclase activity.
Thawed or fresh samples of human PTH(1-84) and of PTH variants obtained as described above were then evaluated for biological activity using a UMR-106 based adenylate cyclase assay and the protocol as described by Rabbini et al, 1988, Endocrinology, 123:2709, which is incorporated herein by reference. As noted, rat osteosarcoma cells of the UMR line are stimulated by PTH to produce adenylate cyclase, an enzyme which catalyzes intracellular conversion of ATP to its cylic monophosphate analogue, cAMP. In this assay therefore, PTH activity is determined by assaying radiometrically the formation of cAMP in PTH-stimulated UMR cells. The results of the assays, expressed in terms of EC50 (concentration of PTH or variant effective for half-maximal stimulation of adenylate cyclase activity), are presented in the table below: […]

ovariectomized rat = test: Ovariectomized rat model of osteoporosis, total skeletal calcium scan; format: in vivo; settings: subcutaneous, once daily for 28 days, human PTH 150 μg/kg, variant dosed at 25 and 150 μg/kg, dose of the reported result not stated
Protocol: The P2 variant was also evaluated in vivo for its effect on skeletal tissue, in an ovariectomized rat model of osteoporosis. Formulations of the P2 variants were first prepared by reconstituting the P2 variant from lyophilized powder in 0.1M acetic acid, then diluting to 10 mM acetic acid by addition of normal saline vehicle and 2% (v/v) heat-inactivated rat serum, to generate a stock solution containing the variant at a concentration of about 150 μg/ml. The P2 formulation was then injected subcutaneously at the neck region, in selected volumes representing dosage sizes of 25 μg/kg and 150 μg/kg (8 rats/each dose). A third group of rats received human PTH at a dose of 150 μg/kg and a fourth group received vehicle alone. Treatment regimen consisted of single dose administration once daily for 28 days.
After treatment, the rats were sacrificed and evaluated by total skeletal calcium scan. Relative to rats receiving vehicle alone, the whole body calcium scanning results indicated an improvement in rats receiving human PTH (5.8% increase), and a still further improvement (9.6% increase) in rats receiving the [His^25 His^26 Leu^27 ] variant. It is believed that enhanced effects of this variant result from its greater half-life in vivo i.e. its resistant to serum-borne trypsin and/or other enzymes which otherwise degrade and/or inactivate the native hormone.

trypsin [2] = system: trypsin
[3] = Trypsin sensitivity: trypsin or mock incubation followed by UMR-106 adenylate cyclase assay; settings: UMR-based adenylate cyclase assay after trypsin incubation under the exemplified conditions; read-out: EC50 following trypsin incubation
Protocol: PTH variants having an "improved stability in the presence of trypsin" are degraded by trypsin at a rate that is slower than a similarly treated native PTH control. An assay suitable for identifying a reduced tryptic digestion rate entails a two step procedure, in which a PTH variant and a native PTH control are separately incubated with trypsin for a defined period, and are then assayed for activity in the osteosarcoma-based assay just described. Protocols suitable for assaying trypsin sensitivity are described in the literature and are outlined in the examples herein.
To measure the sensitivity of a compound (native PTH or variants) to digestion with trypsin, duplicate incubations were established for each compound in either the presence of trypsin ("Trypsin Incubation") or the absence of trypsin ("Mock Incubation"). For example, a lyophilized aliquot of PTH (or variant) was solubilized for 20 minutes at room temperature in 10 mM acetic acid at a final concentration of 1 mg/mL (50 μg PTH or variant plus 50 μL 10 mM acetic acid). […] The appearance of the cleavage product was monitored as a function of time at 253 nm. […]
Parallel trypsin and mock incubations were established as follows. […] Dose-response curves were generated and the relevant EC50 values were calculated. […]

trypsin [4] = test: Trypsin degradation time course quantified by SDS-PAGE gel scanning

EC50 [1] | EC50 [3] | Molecule | increase in whole body calcium relative to rats receiving vehicle alone (ovariectomized rat) | Half-Life (from SDS-PAGE analysis) (trypsin [2]) | potency relative to hPTH (in words) [1] | Half-Life (from SDS-PAGE analysis) (trypsin [4]; Trypsin:PTH = 1:500 (w/w), room temperature, time when Pt/Po = 0.5) | initial material remaining (intact) (trypsin [4]; after 240 minutes, trypsin:PTH 1:500 (w/w)) | resistance to proteolysis by trypsin (in words) (trypsin [4]; trypsin to PTH ratio of 1:500 (w/w))
1 nM | ~12 nM | human PTH(1-84) [hPTH, reference compound] | 5.8% | 25 ± 5 min |  |  |  | 
2 nM |  | [His^25 ]hPTH (protein, UniProt P01270 32-115, looked up, variant R25H) Parathyroid hormone: SVSEIQLMHNLGKHLNSMERVEWLHKKLQDVHNFVALGAPLAPRDAGSQRPRKKEDNVLVESHEKSLGEADKADVNVLTKAKSQ |  | 27 ± 7 min | substantially equipotent |  |  | 
1.7 nM |  | [His^25 His^26 Leu^27 ]hPTH (protein, UniProt P01270 32-115, looked up, variant R25H K26H K27L) Parathyroid hormone: SVSEIQLMHNLGKHLNSMERVEWLHHLLQDVHNFVALGAPLAPRDAGSQRPRKKEDNVLVESHEKSLGEADKADVNVLTKAKSQ | 9.6% |  | substantially equipotent | > 240 min | more than 60% | almost completely resistant to proteolysis
